Experimental findings from patent US9539338B2, “Polymer-based protein engineering methods to rationally tune enzyme activity, pH-dependence and stability” (Carnegie Mellon University, priority 2013, dated 2017) are described below.

A short description of this data set: Stability at 50 or 60° C. (chymotrypsin-pQA). The data set is classed as physicochemical. The note with it: 0.1 M sodium phosphate buffer pH 8.0. On the procedure: […] Aliquots (50 μL) were removed and kept at 0° C. before measuring residual activity. The residual activity was calculated as a ratio of initial rates of hydrolysis reaction at given incubation time over the initial activity for each specific sample.

For the substance “α-Chymotrypsin (CT) from bovine pancreas (type II) [Native CT]”, the “time after which all activity was lost” value (50° C.) came out at 2 h. For the same substance, the “time in which all activity was lost” value (60° C.) was 30 min.
